We go through 76 sequences from the supplement of paper PMC7877785.

The data set is described as follows: self-splicing fitness, log relative to wild type (ln ratio); higher = more splicing; Tetrahymena group I intron in knt gene, E. coli kanamycin selection, DiMSum; sequences stand for … in CUCUCU…GGAGGGAAAAGUUAUCAGGCAUGCACCUGGUAGCUAGUCUUUAAACCAAUAGAUUGCAUCGGUUUAAAAGGCAAGACCGUCAAAUUGCGGGAAAGGGGUCAACAGCCGUUCAGUACCAAGUCUCAGGGGAAACUUUGAGAUGGCCUUGCAAAGGGUAUGGUAAUAAGCUGACGGACAUGGUCCUAACCACGCAGCCAAGUCCUAAGUCAACAGAUCUUCUGUUGAUAUGGAUGCAGUUCACAGACUAAAUGUCGGUCGGGGAAGAUGUAUUCUUCUCAUAAGAUAUAGUCGGACCUCUCCUUAAUGGGAGCUAGCGGAUGAAGUGAUGCAACACUGGAGCCGCUGGGAACUAAUUUGUAUGCGAAAGUAUAUUGAUUAGUUUUGGAGUACUCGUGGUCG
The gist of the method:
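Library with all eight P1ex-region intron nucleotides randomised, intron inside the knt kanamycin-resistance gene on pET-22b(+), in E. coli BL21(DE3). Cells grew overnight at 37°C or 30°C on LB agar with or without 25 μg/mL kanamycin (plus 100 μg/mL carbenicillin, 50 μM IPTG, 0.2% rhamnose), in six replicate transformations. Pooled colonies were amplicon-sequenced on Illumina HiSeq 2500. DiMSum fitness is the error-weighted combination of wild-type-normalised replicate fold changes, kanamycin versus none.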

± gives the uncertainty stated by the source.

Consider AACGAGCAAUAUUACGGCAG, for which, under “37 °C”, the “self-splicing fitness (ln)” value was -3.6 ± 0.36.
AACGAGCAAUAUUACGGUGC: the “self-splicing fitness (ln)” value (30 °C) was -3.15 ± 0.3 and the “self-splicing fitness (ln)” value (37 °C) is -2.69 ± 0.33.
The corresponding values for AACGAGCAAUAUUACGUCAC are -4.01 ± 0.23 and -1.83 ± 0.22.
As for AACGAGCAAUAUUACGUCGG, the “self-splicing fitness (ln)” value is -3.25 ± 0.26 (30 °C) and -0.594 ± 0.15 (37 °C).
Consider AACGAGCAAUAUUACGUCUA, for which the “self-splicing fitness (ln)” value reads like this: (30 °C) -2.06 ± 0.17; (37 °C) -0.756 ± 0.12.
As for AACGAGCAAUAUUACGUGUG, the “self-splicing fitness (ln)” value reads like this: (30 °C) -3.18 ± 0.13; (37 °C) -2.57 ± 0.14.
As for AACGAGCAAUAUUACGUGUU, the “self-splicing fitness (ln)” value (37 °C) is -3.62 ± 0.34.
Regarding AACGAGCAAUAUUACGUUCC, the “self-splicing fitness (ln)” value runs as follows: (30 °C) -3.09 ± 0.36; (37 °C) -2.41 ± 0.3.
AACGAGCAAUAUUACGUUGG: the “self-splicing fitness (ln)” value runs as follows: (30 °C) -3.75 ± 0.24; (37 °C) -2.86 ± 0.25.
With AACUAGCAAUAUUACGACUC, the “self-splicing fitness (ln)” value is, setting by setting: (30 °C) -0.19 ± 0.057; (37 °C) 0.0401 ± 0.079.
In the case of AACUAGCAAUAUUACGAUCG, the “self-splicing fitness (ln)” value (30 °C) was -0.822 ± 0.074 and the “self-splicing fitness (ln)” value (37 °C) came out at 0.0491 ± 0.1.
For AACUAGCAAUAUUACGAUGU, in that order: -0.797 ± 0.082 and -0.157 ± 0.12.
Turning to AACUAGCAAUAUUACGCUCA, the “self-splicing fitness (ln)” value (30 °C) is -0.21 ± 0.1 and the “self-splicing fitness (ln)” value (37 °C) stood at 0.239 ± 0.14.
For AACUAGCAAUAUUACGGAAG, in that order: -2.57 ± 0.13 and -1.49 ± 0.12.
Turning to AACUAGCAAUAUUACGGGGU, the “self-splicing fitness (ln)” value is -3.93 ± 0.3 (30 °C) and -2.34 ± 0.18 (37 °C).
As to AACUAGCAAUAUUACGUCCU, the “self-splicing fitness (ln)” value is -0.111 ± 0.092 (30 °C) and 1.04 ± 0.12 (37 °C).
Regarding AACUAGCAAUAUUACGUCGG, the “self-splicing fitness (ln)” value was -3.57 ± 0.14 (30 °C) and -2.26 ± 0.16 (37 °C).
Take AACUAGCAAUAUUACGUGCG: the “self-splicing fitness (ln)” value was -0.832 ± 0.067 (30 °C) and -0.0538 ± 0.078 (37 °C).
The corresponding values for AACUAGCAAUAUUACGUUCG are -3.36 ± 0.26 and -1.79 ± 0.16.
The corresponding values for AAGAAGCAAUAUUACGAAUA are -1.86 ± 0.17 and -0.73 ± 0.12.
Turning to AAGAAGCAAUAUUACGACCU, the “self-splicing fitness (ln)” value reads like this: (30 °C) 0.116 ± 0.099; (37 °C) -0.338 ± 0.11.
As for AAGAAGCAAUAUUACGACGA, the “self-splicing fitness (ln)” value was -0.362 ± 0.093 (30 °C) and -0.274 ± 0.099 (37 °C).
Take AAGAAGCAAUAUUACGACGC: the “self-splicing fitness (ln)” value (30 °C) is -0.655 ± 0.12 and the “self-splicing fitness (ln)” value (37 °C) was -0.0572 ± 0.17.
The corresponding values for AAGAAGCAAUAUUACGAGCA are -1.21 ± 0.12 and -0.225 ± 0.1.
Regarding AAGAAGCAAUAUUACGAGCC, the “self-splicing fitness (ln)” value (30 °C) is -2.58 ± 0.2 and the “self-splicing fitness (ln)” value (37 °C) was -2.58 ± 0.29.
As for AAGAAGCAAUAUUACGAUAU, the “self-splicing fitness (ln)” value was -1.66 ± 0.11 (30 °C) and -0.399 ± 0.12 (37 °C).
On to AAGAAGCAAUAUUACGCAGG, for which the “self-splicing fitness (ln)” value was -2.54 ± 0.14 (30 °C) and -1.26 ± 0.14 (37 °C).
On to AAGAAGCAAUAUUACGCAUG, for which the “self-splicing fitness (ln)” value was -1.63 ± 0.13 (30 °C) and -0.526 ± 0.13 (37 °C).
The corresponding values for AAGAAGCAAUAUUACGCGCC are -0.652 ± 0.13 and -0.664 ± 0.2.
Consider AAGAAGCAAUAUUACGCUGG, for which the “self-splicing fitness (ln)” value is -2.37 ± 0.2 (30 °C) and -0.515 ± 0.2 (37 °C).
The corresponding values for AAGAAGCAAUAUUACGGAAA are -2.17 ± 0.19 and -1.72 ± 0.2.
For the sequence AAGAAGCAAUAUUACGGACA, the “self-splicing fitness (ln)” value was -1.66 ± 0.092 (30 °C) and -0.389 ± 0.096 (37 °C).
AAGAAGCAAUAUUACGGCGU: the “self-splicing fitness (ln)” value was found to be 0.0118 ± 0.086 (30 °C) and 0.334 ± 0.11 (37 °C).
Regarding AAGAAGCAAUAUUACGGGAU, the “self-splicing fitness (ln)” value runs as follows: (30 °C) -3.22 ± 0.22; (37 °C) -1.77 ± 0.18.
The corresponding values for AAGAAGCAAUAUUACGGGCC are -2.42 ± 0.22 and -1.52 ± 0.21.
Turning to AAGAAGCAAUAUUACGGGUG, the “self-splicing fitness (ln)” value (30 °C) is -1.65 ± 0.072 and the “self-splicing fitness (ln)” value (37 °C) is -1.12 ± 0.086.
Take AAGAAGCAAUAUUACGGUCG: the “self-splicing fitness (ln)” value by setting is: (30 °C) -0.736 ± 0.073; (37 °C) -0.121 ± 0.1.
For AAGAAGCAAUAUUACGUAAG, in that order: -1.37 ± 0.069 and -0.942 ± 0.083.
AAGAAGCAAUAUUACGUGCU: the “self-splicing fitness (ln)” value is -2.37 ± 0.087 (30 °C) and -1.3 ± 0.082 (37 °C).
Consider AAGAAGCAAUAUUACGUGUA, for which the “self-splicing fitness (ln)” value is -1.85 ± 0.11 (30 °C) and -1.19 ± 0.092 (37 °C).
The corresponding values for AAGAAGCAAUAUUACGUUGU are -3.2 ± 0.1 and -2.06 ± 0.11.
Regarding AAGCAGCAAUAUUACGAAGC, the “self-splicing fitness (ln)” value is, setting by setting: (30 °C) -3.33 ± 0.29; (37 °C) -1.93 ± 0.27.
With AAGCAGCAAUAUUACGAGCG, the “self-splicing fitness (ln)” value is -1.12 ± 0.11 (30 °C) and -0.344 ± 0.14 (37 °C).
As for AAGCAGCAAUAUUACGAGCU, the “self-splicing fitness (ln)” value was -1.2 ± 0.079 (30 °C) and -0.815 ± 0.083 (37 °C).
On to AAGCAGCAAUAUUACGAUGC, for which the “self-splicing fitness (ln)” value is -1.38 ± 0.11 (30 °C) and -0.411 ± 0.13 (37 °C).
Regarding AAGCAGCAAUAUUACGAUUA, the “self-splicing fitness (ln)” value by setting is: (30 °C) -1.4 ± 0.077; (37 °C) -0.962 ± 0.066.
On to AAGCAGCAAUAUUACGCCAC, for which the “self-splicing fitness (ln)” value is -2.93 ± 0.22 (30 °C) and -2.72 ± 0.29 (37 °C).
For AAGCAGCAAUAUUACGCCCC, in that order: -0.65 ± 0.15 and -0.107 ± 0.19.
Regarding AAGCAGCAAUAUUACGCCGA, the “self-splicing fitness (ln)” value (30 °C) is -1.64 ± 0.3 and the “self-splicing fitness (ln)” value (37 °C) is -1.61 ± 0.26.
Regarding AAGCAGCAAUAUUACGCGAA, the “self-splicing fitness (ln)” value was -1.77 ± 0.083 (30 °C) and -1.2 ± 0.1 (37 °C).
On to AAGCAGCAAUAUUACGCGAU, for which the “self-splicing fitness (ln)” value is, setting by setting: (30 °C) -3.31 ± 0.18; (37 °C) -3.25 ± 0.18.
The corresponding values for AAGCAGCAAUAUUACGCGGU are -3.08 ± 0.17 and -2.55 ± 0.23.
For the sequence AAGCAGCAAUAUUACGCGUU, the “self-splicing fitness (ln)” value by setting is: (30 °C) -2.2 ± 0.1; (37 °C) -1.99 ± 0.11.
AAGCAGCAAUAUUACGCUCA: the “self-splicing fitness (ln)” value is, setting by setting: (30 °C) 0.661 ± 0.12; (37 °C) -0.0809 ± 0.2.
As to AAGCAGCAAUAUUACGGAAG, the “self-splicing fitness (ln)” value reads like this: (30 °C) -3.51 ± 0.15; (37 °C) -1.35 ± 0.14.
For AAGCAGCAAUAUUACGGAGG, the “self-splicing fitness (ln)” value (30 °C) is -3.79 ± 0.19 and the “self-splicing fitness (ln)” value (37 °C) is -2.53 ± 0.21.
Take AAGCAGCAAUAUUACGGAUG: the “self-splicing fitness (ln)” value is -3.17 ± 0.2 (30 °C) and -2.57 ± 0.2 (37 °C).
AAGCAGCAAUAUUACGGCAC: the “self-splicing fitness (ln)” value was -0.574 ± 0.072 (30 °C) and -0.149 ± 0.098 (37 °C).
The corresponding values for AAGCAGCAAUAUUACGGCAU are -0.221 ± 0.083 and 0.127 ± 0.1.
As to AAGCAGCAAUAUUACGGCUU, the “self-splicing fitness (ln)” value is, setting by setting: (30 °C) -3.42 ± 0.14; (37 °C) -0.925 ± 0.12.
The corresponding values for AAGCAGCAAUAUUACGGGGG are -3.26 ± 0.22 and -1.92 ± 0.16.
For AAGCAGCAAUAUUACGUAGG, in that order: -2.79 ± 0.096 and -1.96 ± 0.13.
For AAGCAGCAAUAUUACGUAUG, the “self-splicing fitness (ln)” value is, setting by setting: (30 °C) -4.5 ± 0.26; (37 °C) -2.63 ± 0.17.
AAGCAGCAAUAUUACGUGUU: the “self-splicing fitness (ln)” value (30 °C) was -3.31 ± 0.1 and the “self-splicing fitness (ln)” value (37 °C) is -1.65 ± 0.089.
For AAGCAGCAAUAUUACGUUGU, in that order: -3.89 ± 0.12 and -2.31 ± 0.11.
In the case of AAGGAGCAAUAUUACGAACG, where the note is “37 °C”, the “self-splicing fitness (ln)” value is -0.373 ± 0.27.
Regarding AAGGAGCAAUAUUACGAUAU, the “self-splicing fitness (ln)” value is, setting by setting: (30 °C) -3.03 ± 0.32; (37 °C) -2.37 ± 0.45.
As for AAGGAGCAAUAUUACGCAAG, the “self-splicing fitness (ln)” value by setting is: (30 °C) -1.2 ± 0.38; (37 °C) -1.45 ± 0.49.
As for AAGGAGCAAUAUUACGCAGA, the “self-splicing fitness (ln)” value (37 °C) was -2.56 ± 0.45.
Turning to AAGGAGCAAUAUUACGCAUU, the “self-splicing fitness (ln)” value (30 °C) is -2.8 ± 0.15 and the “self-splicing fitness (ln)” value (37 °C) is -1.64 ± 0.16.
With AAGGAGCAAUAUUACGCCAG, the “self-splicing fitness (ln)” value is -2.29 ± 0.26 (30 °C) and -3.1 ± 0.35 (37 °C).
For AAGGAGCAAUAUUACGGAGU, in that order: -3.24 ± 0.22 and -1.33 ± 0.17.
Turning to AAGGAGCAAUAUUACGGGAG, the “self-splicing fitness (ln)” value reads like this: (30 °C) -4.8 ± 0.39; (37 °C) -2.24 ± 0.3.
On to AAGGAGCAAUAUUACGGGCA, for which the “self-splicing fitness (ln)” value was -1.9 ± 0.23 (30 °C) and -1.2 ± 0.28 (37 °C).
As for AAGGAGCAAUAUUACGGGCC, the “self-splicing fitness (ln)” value is -2.98 ± 0.37 (30 °C) and -2.27 ± 0.45 (37 °C).
In the case of AAGGAGCAAUAUUACGGGUA, the “self-splicing fitness (ln)” value (30 °C) is -2.64 ± 0.24 and the “self-splicing fitness (ln)” value (37 °C) was -2.3 ± 0.46.
